Changes are numbered by the printed parent chain.
B1: hACI-7067-1101C8-Ab2_H8L1 (antibody, V domains shown)
VH: EVQLVESGGGLVQPGGSLKLSCAASGFSFNIYAMNWVRQAPGKGLEWVGRIRSKSNAYATYYAASVKGRFTISRDDSKNTLYLQMNNLKTEDTAVYYCTRVGLRFYALDYWGQGTLVTVSS
VL: DVVMTQSPLSLPVTLGQPASISCRSSQSIVHSNANTYLEWYQQRPGQSPRLLIYKVSNRFSGVPDRFSGSGSGTDFTLKISRVEAEDLGVYYCFQGSQGPLTFGQGTKLEIK
notes: VH on human IgG1 constant, VL on human kappa constant
B2: hACI-7067-1101C8-Ab2_H5L1 (antibody, V domains shown)
VH: B1 VH with L108M
VL: B1 VL
notes: as for B1
B3: hACI-7067-1101C8-Ab2_H11L1 (antibody, V domains shown)
VH: B1 VH with S28T, L81A, L108M
VL: B1 VL
notes: as for B1
B4: hACI-7067-1101C8-Ab2_H9L2 (antibody, V domains shown)
VH: B1 VH with S28T, L108M
VL: B1 VL with I29L
notes: as for B1
B5: hACI-7067-1101C8-Ab2_H12L1 (antibody, V domains shown)
VH: B1 VH with S28T, L81A
VL: B1 VL
notes: as for B1
B6: hACI-7067-1101C8-Ab2_H11L2 (antibody, V domains shown)
VH: B1 VH with S28T, L81A, L108M
VL: B1 VL with I29L
notes: as for B1
B7: hACI-7067-1101C8-Ab2_H10L2 (antibody, V domains shown)
VH: B1 VH with S28T
VL: B1 VL with I29L
notes: as for B1
B8: hACI-7067-1101C8-Ab2_H2L1 (antibody, V domains shown)
VH: B1 VH with T99V, L108M
VL: B1 VL
notes: as for B1
B9: hACI-7067-1101C8-Ab2_H1L1 (antibody, V domains shown)
VH: B1 VH with G49A, T99V, L108M
VL: B1 VL
notes: as for B1
B10: hACI-7067-1101C8-Ab2_H4L1 (antibody, V domains shown)
VH: B1 VH with S28T, T99V, L108M
VL: B1 VL
notes: as for B1
B11: hACI-7067-1101C8-Ab2_H2L2 (antibody, V domains shown)
VH: B1 VH with T99V, L108M
VL: B1 VL with I29L
notes: as for B1
B12: hACI-7067-1101C8-Ab2_H5L3 (antibody, V domains shown)
VH: B1 VH with L108M
VL: B1 VL with Y41F
notes: as for B1
B13: hACI-7067-1101C8-Ab2_H1L4 (antibody, V domains shown)
VH: B1 VH with G49A, T99V, L108M
VL: B1 VL with I29L, Y41F
notes: as for B1
B14: hACI-7067-1101C8-Ab2_H2L4 (antibody, V domains shown)
VH: B1 VH with T99V, L108M
VL: B1 VL with I29L, Y41F
notes: as for B1
B15: hACI-7067-1101C8-Ab2_H5L2 (antibody, V domains shown)
VH: B1 VH with L108M
VL: B1 VL with I29L
notes: as for B1
B16: hACI-7067-1101C8-Ab2_H4L4 (antibody, V domains shown)
VH: B1 VH with S28T, T99V, L108M
VL: B1 VL with I29L, Y41F
notes: as for B1
B17: hACI-7067-1101C8-Ab2_H3L4 (antibody, V domains shown)
VH: B1 VH with L81A, T99V, L108M
VL: B1 VL with I29L, Y41F
notes: as for B1
B18: hACI-7067-1101C8-Ab2_H1L2 (antibody, V domains shown)
VH: B1 VH with G49A, T99V, L108M
VL: B1 VL with I29L
notes: as for B1
B19: hACI-7067-1101C8-Ab2_H2L3 (antibody, V domains shown)
VH: B1 VH with T99V, L108M
VL: B1 VL with Y41F
notes: as for B1
B20: hACI-7067-1101C8-Ab2_H1L3 (antibody, V domains shown)
VH: B1 VH with G49A, T99V, L108M
VL: B1 VL with Y41F
notes: as for B1
B21: hACI-7067-1101C8-Ab2_H3L3 (antibody, V domains shown)
VH: B1 VH with L81A, T99V, L108M
VL: B1 VL with Y41F
notes: as for B1
B22: hACI-7067-1101C8-Ab2_H4L2 (antibody, V domains shown)
VH: B1 VH with S28T, T99V, L108M
VL: B1 VL with I29L
notes: as for B1
B23: hACI-7067-1101C8-Ab2_H3L1 (antibody, V domains shown)
VH: B1 VH with L81A, T99V, L108M
VL: B1 VL
notes: as for B1
B24: hACI-7067-1101C8-Ab2_H4L3 (antibody, V domains shown)
VH: B1 VH with S28T, T99V, L108M
VL: B1 VL with Y41F
notes: as for B1
B25: hACI-7067-1101C8-Ab2_H6L1 (antibody, V domains shown)
VH: B1 VH with G49A, T99V, L108S
VL: B1 VL
notes: as for B1
B26: hACI-7067-1101C8-Ab2_H3L2 (antibody, V domains shown)
VH: B1 VH with L81A, T99V, L108M
VL: B1 VL with I29L
notes: as for B1
B27: hACI-7067-1101C8-Ab2_H5L4 (antibody, V domains shown)
VH: B1 VH with L108M
VL: B1 VL with I29L, Y41F
notes: as for B1
B28: hACI-7067-1101C8-Ab2_H7L1 (antibody, V domains shown)
VH: B1 VH with G49A, T99V, L108T
VL: B1 VL
notes: as for B1

biological target: T1, alpha-synuclein fibrils (Homo sapiens (Human), UniProt P37840 1-140); experiment: SPR, mAb captured, 1:1 model
Method: (§1) Non-covalent immobilization of alpha-synuclein antibodies was performed using a target immobilization method of 200 response units (RU). […] Binding affinity of alpha-synuclein antibodies to monomeric or fibrillar alpha-synuclein species was performed using a single-cycle kinetics method. […] A dissociation phase of 900 sec followed the final 50 nM injection. Regeneration of the sensor to the goat anti-human antibody layer was achieved using 3 regenerations of 10 mM Glycine pH 1.7. […] Regeneration of the sensor to the goat anti-human antibody layer was achieved using 3 regenerations of 10 mM Glycine pH 1.7. Results obtained from single-cycle kinetics were evaluated by Biacore K8 evaluation software with 1:1 binding homogenous Langmuir model (with a global Rmax) with Cycle 5 as a blank subtraction. The following kinetic parameters were obtained: on-rate (ka), off-rate (kd), affinity constant (KD, ratio of kd by ka), maximum response (Rmax), and goodness of fit (Chi2).
(§2) Kinetic constants were determined from 1:1 homogenous binding models for binding versus the aggregated form, while a steady state fit was used to determine KD values versus the monomeric form of alpha-synuclein.

Row | Kd [nM] | koff [s⁻¹] | kon [M⁻¹ s⁻¹] | Binder
1 | 2 | 3.6e-05 | 17600 | B1
2 | 1 | 2.18e-05 | 22000 | B2

biological target: T2, human full-length alpha-synuclein (human, UniProt P37840 1-140); experiment: SPR, mAb captured, steady-state fit
Method: as §1, §2

Row | Kd [nM] | Binder
3 | 48 | B3
4 | 66.9 | B4
5 | 40 | B1
6 | 20.1 | B2
7 | 64.4 | B5
8 | 80.1 | B6
9 | 35.1 | B7

biological target: T2, human full-length alpha-synuclein; experiment: SPR, 100 nM monomer, relative to chimeric;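 also: SPR with antibody variants captured via anti-human Fc IgG on an amine-coupled chip, isotype IgG1 reference channel subtracted, dissociation rate fitted by 1:1 or heterogeneous ligand model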
Method: (§3) Flow channels (Fc) 1-8 were activated with a fresh solution of EDC/NHS (Amine Coupling Kit, 1:1 ratio of both reagents, GE Healthcare Life Sciences, BR100050). […] The chip was deactivated by 1 M ethanolamine-HCl (GE Healthcare Life Sciences, BR100050) at a flow rate of 10 μL/min for 420 s.
(§4) A human IgG1 isotype control diluted in running buffer 1×HBS-EP+ (GE Healthcare Life Sciences, BR100669) was captured onto Fc1 via anti-human Fc IgG at a flow rate of 10 μL/min. […] 10 mM glycine pH 1.5 as regeneration buffer was injected following every dissociation phase.
(§5) The data for reference channel Fc1 and buffer channel were subtracted to generate the sensorgrams. The experimental data was fitted by 1:1 binding model or heterogeneous ligand model.

Row | Relative koff | Binder
10 | 2 | B8
11 | 1.3 | B9
12 | 0.8 | B3
13 | 1.9 | B10
14 | 1.1 | B11
15 | 0.8 | B4
16 | 0.2 | B12
17 | 0.2 | B1
18 | 1.1 | B2
19 | 0.1 | B13
20 | 0.1 | B14
21 | 0.8 | B15
22 | 0.1 | B16
23 | 0.1 | B17
24 | 0.6 | B18
25 | 0.2 | B19
26 | 0.2 | B20
27 | 0.1 | B21
28 | 1.1 | B22
29 | 1 | B23
30 | 0.2 | B24
31 | 0.2 | B5
32 | 0.8 | B6
33 | 0.2 | B7
34 | 0.3 | B25
35 | 0.6 | B26
36 | 0.1 | B27

biological target: T1, alpha-synuclein fibrils; experiment: SPR, 450 nM aggregates, relative to chimeric;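 also: surface plasmon resonance with anti-human Fc capture, human IgG1 isotype control channel and buffer run subtracted, dissociation rates fitted by 1:1 or heterogeneous ligand binding model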
Method: as §3, §4, §5

Row | Relative koff | Binder
37 | 0.5 | B8
38 | 851 | B9
39 | 62 | B3
40 | 1420 | B28
41 | 0.5 | B10
42 | 1.9 | B11
43 | 2.3 | B4
44 | 0.2 | B12
45 | 1.1 | B1
46 | 1.5 | B2
47 | 0.3 | B13
48 | 0.2 | B14
49 | 1.4 | B15
50 | 0.3 | B16
51 | 0.3 | B17
52 | 131 | B18
53 | 0.3 | B19
54 | 0.3 | B20
55 | 0.2 | B21
56 | 1.6 | B22
57 | 213 | B23
58 | 0.3 | B24
59 | 1 | B5
60 | 5.4 | B6
61 | 0.8 | B7
62 | 1 | B25
63 | 1230 | B26
64 | 0.2 | B27

From patent US20220298231A1 (AC IMMUNE, published 2022)
